Experimental data reported in PMC12503259, “Establishment of an in vivo analytical method for detecting total anti-UFH activity and pharmacokinetic study in PS and R15 in rats” (PLOS One, 2025).

Assays:
[1] = Stability in rat plasma at room temperature for 30 min; format: in vitro ADME; conditions: for RE%: plasma sample, room temperature (25℃) for 30 min, n=6; for Measured concentration after storage, Mean ± SD / RE (%) versus nominal concentration: rat plasma, room temperature (25°C ± 1°C) for 30 min; for Measured concentration after storage, Mean ± SD: n = 6
Procedure: (§1) Processing of Plasma Samples: 100 μL of the unknown plasma sample was added to 500 μL of 75% methanol (methanol: water = 75:25, v/v) and vortex-mixed for 5 seconds. The mixture was then centrifuged at 12,000 r/min for 10 minutes at 25°C. The supernatant (500 μL) was collected and dried under nitrogen at 60°C. Subsequently, UFH (0.14 U·mL^-1 for PS and 0.15 U·mL^-1 for R15; 120 μL) was added, and the mixture was vigorously shaken at room temperature for 10 minutes. The residual UFH content was measured using the Heparin Anti-FXa assay kit.
(§2) The detailed procedure is as follows: Accurately pipette 40 μL of the sample into a 96-well plate. Place the plate in a microplate shaker. Using a multichannel pipette, add 40 μL of reagent R1 and mix by shaking. Incubate at 37 °C for exactly 3 minutes (start timing upon addition of R1; at 50 seconds, begin shaking with the microplate shaker for 1 minute, then place the plate in the incubator). Remove the 96-well plate from the incubator and place it on the open microplate shaker. Using a multichannel pipette, add 40 μL of reagent R2 to each well and incubate at 37 °C for 6 minutes (after adding R2, at 3 minutes and 50 seconds, open the microplate shaker and shake for 4 minutes, then return the plate to the incubator). Remove the 96-well plate from the incubator and place it on the open microplate shaker. Quickly add 40 μL of reagent R3 using a multichannel pipette and shake until 9 minutes and 10 seconds. At 9 minutes and 30 seconds, add 80 μL of 20% acetic acid to each well to terminate the reaction. Measure the absorbance at 405 nm using a microplate reader (Multiskan FC, Thermo Fisher US).
(§3) Two concentration levels (low and high QC) were evaluated for validation of storage stability and freeze/thaw stability. Two concentration levels of PS and R15 (low and high QC) in blank rat plasma were prepared (n = 6), respectively. Samples in rats’ plasma were determined after storage at room temperature (25°C ± 1°C) for 30 min. Samples in rats’ plasma were under three freeze (−80°C)-thaw (25°C) cycles. Stock solution of PS and R15 were stored at 4°C for a week. All the samples mentioned above were processed by calibration curves with adequate QC samples diluted from newly prepared stock solution of PS and R15, followed by procedure of sample determination (see “Sample Preparation”), respectively.

[2] = Stability in rat plasma after three freeze-thaw cycles; format: in vitro ADME; conditions: for RE%: plasma sample, freeze-thaw three cycles in -20℃, n=6; for Measured concentration after storage, Mean ± SD / RE (%) versus nominal concentration: rat plasma, three freeze (−80°C)-thaw (25°C) cycles; for Measured concentration after storage, Mean ± SD: n = 6
Procedure: as §1, §2
Two concentration levels (low and high QC) were evaluated for validation of storage stability and freeze/thaw stability. Two concentration levels of PS and R15 (low and high QC) in blank rat plasma were prepared (n = 6), respectively. Samples in rats’ plasma were determined after storage at room temperature (25°C ± 1°C) for 30 min. […] Stock solution of PS and R15 were stored at 4°C for a week. All the samples mentioned above were processed by calibration curves with adequate QC samples diluted from newly prepared stock solution of PS and R15, followed by procedure of sample determination (see “Sample Preparation”), respectively.

[3] = Stability of stock solution at 4°C for a week; format: physicochemical; conditions: for Measured concentration after storage, Mean ± SD: stock solution (10 mg·mL^-1 in deionized water) stored 1 week at 4°C, n = 6; for Mean determined concentration, stability of stock solution / RE%: stock solution for 1 week; for Mean determined concentration, stability of stock solution: mean of n=6; for RE%: n=6; for RE (%) versus nominal concentration: stock solution stored 1 week at 4°C
Procedure: Preparation of Stock Solutions: Appropriate amounts of PS and R15 powders were accurately weighed and dissolved in deionized water to obtain stock solutions at 10 mg·mL^-1, respectively. This solution was stored in a refrigerator at 4 °C and replaced regularly.
as §3

[4] = Specific activity, units of UFH neutralized per mg; format: biochemical; conditions: units of UFH exactly neutralized per milligram
Text: Since the toxicity of both PS and R15 correlates with their heparin antagonism capacity (i.e., potency), the units used for PS and R15 in most experiments are U·mL^-1 or U·kg^-1. Employing activity units (U) allows for a more scientifically rigorous comparison of the pharmacokinetic parameters of PS and R15 under equivalent activity levels (i.e., equivalent heparin antagonism capacity).
The specific activity of PS is 150 U·mg^-1, meaning that each milligram of PS can exactly neutralize 150 units of UFH. The specific activity of R15 is 170 U·mg^-1, meaning that each milligram of R15 can exactly neutralize 170 units of UFH. Therefore, expressing the concentration of PS as 1 U·mL^-1 denotes that each milliliter of the medium contains sufficient PS to neutralize 1 unit of UFH, and the same applies to R15.

[5] = in vivo; cited from earlier work
Text: In clinical practice, PS is typically administered at 1.2 times the anti-heparin activity of circulating UFH to achieve complete neutralization [40, 41].

[6] = nominal 0.7 μg·mL^-1, anti-FXa read-out at 405 nm
[7] = nominal 1.5 μg·mL^-1, anti-FXa read-out at 405 nm

Protamine sulfate [PS]
RE% ([1]; nominal 0.70 μg/mL): 8.10%
RE% ([1]; nominal 1.50 μg/mL): 4.44%
Measured concentration after storage, Mean ± SD [1, 6]: 0.76 ± 0.01 µg/mL
RE (%) versus nominal concentration ([1]; nominal 0.7 μg·mL^-1, n = 6): 8.10%
Measured concentration after storage, Mean ± SD [1, 7]: 1.57 ± 0.09 µg/mL
RE (%) versus nominal concentration ([1]; nominal 1.5 μg·mL^-1, n = 6): 4.44%
RE% ([2]; nominal 0.70 μg/mL): 10.71%
RE% ([2]; nominal 1.50 μg/mL): 5.78%
Measured concentration after storage, Mean ± SD [2, 6]: 0.78 ± 0.02 µg/mL
RE (%) versus nominal concentration ([2]; nominal 0.7 μg·mL^-1, n = 6): 10.71%
Measured concentration after storage, Mean ± SD [2, 7]: 1.59 ± 0.04 µg/mL
RE (%) versus nominal concentration ([2]; nominal 1.5 μg·mL^-1, n = 6): 5.78%
Measured concentration after storage, Mean ± SD ([3]; then diluted to nominal 0.7 μg·mL^-1, anti-FXa read-out): 0.59 ± 0.02 µg/mL
Measured concentration after storage, Mean ± SD ([3]; then diluted to nominal 1.5 μg·mL^-1, anti-FXa read-out): 1.44 ± 0.04 µg/mL
Mean determined concentration, stability of stock solution ([3]; nominal 0.7 μg/mL): 0.59 µg/mL
RE% ([3]; nominal 0.7 μg/mL): -15.2%
Mean determined concentration, stability of stock solution ([3]; nominal 1.5 μg/mL): 1.44 µg/mL
RE% ([3]; nominal 1.5 μg/mL): -4.1%
RE (%) versus nominal concentration ([3]; nominal 0.7 μg·mL^-1, n = 6): −15.2%
RE (%) versus nominal concentration ([3]; nominal 1.5 μg·mL^-1, n = 6): −4.1%
specific activity [4]: 150 U·mg^-1
T1/2 [5]: 7.4 min
